Laboratory results reported in patent US20200271651.

T1: FluHSA2 fluorogenic peptide
T1 chain: TKCATESAVNRRPCFSALK

T2: fluorescent labeled elastin protein (5-Fam-QXL520 labeled-elastin), P15502
T2 chain: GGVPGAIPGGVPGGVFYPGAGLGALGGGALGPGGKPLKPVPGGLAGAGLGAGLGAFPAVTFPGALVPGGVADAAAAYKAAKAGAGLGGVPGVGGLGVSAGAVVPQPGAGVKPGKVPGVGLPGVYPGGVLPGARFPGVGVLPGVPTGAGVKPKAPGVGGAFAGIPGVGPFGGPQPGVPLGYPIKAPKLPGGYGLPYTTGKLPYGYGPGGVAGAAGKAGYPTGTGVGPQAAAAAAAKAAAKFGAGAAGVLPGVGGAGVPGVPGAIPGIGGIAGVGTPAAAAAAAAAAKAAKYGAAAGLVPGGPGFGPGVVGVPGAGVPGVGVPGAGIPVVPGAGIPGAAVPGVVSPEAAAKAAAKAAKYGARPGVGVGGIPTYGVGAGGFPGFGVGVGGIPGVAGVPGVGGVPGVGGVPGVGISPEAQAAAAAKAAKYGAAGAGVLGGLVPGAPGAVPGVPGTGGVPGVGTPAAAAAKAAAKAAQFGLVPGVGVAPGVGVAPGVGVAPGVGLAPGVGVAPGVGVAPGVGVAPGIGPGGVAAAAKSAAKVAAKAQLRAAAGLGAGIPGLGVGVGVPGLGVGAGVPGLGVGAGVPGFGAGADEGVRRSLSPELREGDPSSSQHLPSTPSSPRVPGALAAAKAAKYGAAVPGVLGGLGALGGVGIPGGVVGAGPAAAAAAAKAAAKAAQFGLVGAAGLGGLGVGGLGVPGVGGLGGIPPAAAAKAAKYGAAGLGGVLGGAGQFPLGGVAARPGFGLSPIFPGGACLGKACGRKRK


Key:
[1] = target: T1, FluHSA2 fluorogenic peptide
[2] = target: T2, fluorescent labeled elastin protein …

Protein	degradation of FITC conjugated collagen (15 ug/mL; fluorescence), native Asp f2 on 5D7A1-bound beads (FITC conjugated collagen)	cleavage of FluHSA2 (10 uM, 16 hours at 22 C; fluorescence), native Asp f2 on anti-Asp f2-immobilized beads [1]	cleavage of FluHSA2 (fluorescence, Ex 485 nm/Em 535 nm), Asp f2 captured on 5D7A1-bound beads [1]	degradation of 5-Fam-QXL520 labeled elastin (fluorescence), native Asp f2 on 5D7A1-bound beads [2]
native Asp f2 (glycosylated form) of Aspergillus fumigatus (protein) ATPHEPVFFSWDAGAVTSFPIHSSCNATQRRQIEAGLNEAVELARHAKAHILRWGNESEIYRKYFGNRPTMEAVGAYDVIVNGDKANVLFRCDNPDGNCALEGWGGHWRGANATSETVICDRSYTTRRWLVSMCSQGYTVAGSETNTFWASDLMHRLYHVPAVGQGWVDHFADGYDEVIALAKSNGTESTHDSEALQYFALEAYAFDIAAPGVGCAGESHGPDQGHDTGSASAPASTSTSSSSSGSGSGATTTPTDSPSATIDVPSNCHTHEGGQLHCT	native Asp f2 is also capable of degrading the human proteins collagen and elastin	FluHSA2 was found to exhibit high specificity for cleavage by Asp f2 compared with Asp f3	both native and recombinant Asp f2 cleave the FluHSA2 substrate	native Asp f2 is also capable of degrading the human proteins collagen and elastin
active recombinant Asp f2 (residues 32-310) (protein) ATPHEPVFFSWDAGAVTSFPIHSSCNATQRRQIEAGLNEAVELARHAKAHILRWGNESEIYRKYFGNRPTMEAVGAYDVIVNGDKANVLFRCDNPDGNCALEGWGGHWRGANATSETVICDRSYTTRRWLVSMCSQGYTVAGSETNTFWASDLMHRLYHVPAVGQGWVDHFADGYDEVIALAKSNGTESTHDSEALQYFALEAYAFDIAAPGVGCAGESHGPDQGHDTGSASAPASTSTSSSSSGSGSGATTTPTDSPSATIDVPSNCHTHEGGQLHCT			both native and recombinant Asp f2 cleave the FluHSA2 substrate	
